Measurements reported in publication PMC4552633.

What was measured:
[1] = molecular target: clathrin adaptor AP-2, endogenous in 293T cells (detected by its α adaptin subunit), O95782;Q96CW1;P53680; test: cross-linking co-immunoprecipitation (anti-HA IP), Western blot quantification; conditions: read off a plot
[2] = molecular target: clathrin adaptor AP-1, endogenous in 293T cells (detected by its γ-adaptin subunit), O43747;Q9BXS5;P61966; test: as above; conditions: read off a plot
[3] = 293T tetherin Y6,8A cells, PFA (0.05% w/v) cross-linking, 48 h post transfection, parent: est. 2.3
[4] = 293T tetherin cells, PFA (0.05% w/v) cross-linking, 48 h post transfection, parent: est. 0.9
[5] = 293T tetherin Y6,8A cells, PFA (0.05% w/v) cross-linking, 48 h post transfection, parent: est. 1.8
[6] = 293T tetherin cells, PFA (0.05% w/v) cross-linking, 48 h post transfection, parent: est. 1.5
[7] = 293T tetherin Y6,8A cells, DMSO, PFA (0.05% w/v) cross-linking, 48 h post transfection, parent: est. 1.7
[8] = 293T tetherin Y6,8A cells, DMSO, PFA (0.05% w/v) cross-linking, 48 h post transfection, parent: est. 2.5

| Substance | response (% relative to input control) [1, 3] | response (% relative to input control) [1, 4] | response (% relative to input control) [2, 5] | response (% relative to input control) [2, 6] | response (% relative to input control) [1, 7] | response (% relative to input control) ([1]; parent: est. 0) | response (% relative to input control) [2, 8] | response (% relative to input control) ([2]; parent: est. 0) |
| --- | --- | --- | --- | --- | --- | --- | --- | --- |
| HIV-1 NL4.3 Vpu-HA (codon optimized, pCR3.1 Vpu-HA) A14L; W22A | 0 | 0 | 0 | 0.45 |  |  |  |  |
| HIV-1 NL4.3 Vpu-HA (codon optimized, pCR3.1 Vpu-HA) ELV | 0 | 0 | 0 | 0.95 | 0 | 0 | 0 | 0 |
| HIV-1 NL4.3 Vpu-HA (codon optimized, pCR3.1 Vpu-HA) L41A; I42A; L45A; I46A | 0 | 0 | 0 | 0.1 |  |  |  |  |
| HIV-1 NL4.3 Vpu-HA (codon optimized, pCR3.1 Vpu-HA) N54H; E55G | 0 | 0 | 0 | 0 |  |  |  |  |
| HIV-1 NL4.3 Vpu-HA (codon optimized, pCR3.1 Vpu-HA) S52A; S56A | 0 | 0 | 0 | 1 | 0 | 0 | 0 | 0 |
